Test results reported in publication PMC10352136 (2023).

How the values were obtained:
[1] = target: T1, SNX1-SAH^3A:SNX5-SAH^3A heterodimer (human, UniProt Q13596 1-522; Q9Y5X3 1-404); assay: ITC; representative single experiment
[2] = target: T2, SNX1-BT*:SNX5-BT* heterodimer (human, UniProt Q13596 1-522; Q9Y5X3 1-404); assay: ITC; representative single experiment
[3] = target: T1, SNX1-SAH^3A:SNX5-SAH^3A heterodimer; assay: ITC
[4] = target: T2, SNX1-BT*:SNX5-BT* heterodimer; assay: ITC

T1 sequence (Q13596 whole entry, chain 1 of 2): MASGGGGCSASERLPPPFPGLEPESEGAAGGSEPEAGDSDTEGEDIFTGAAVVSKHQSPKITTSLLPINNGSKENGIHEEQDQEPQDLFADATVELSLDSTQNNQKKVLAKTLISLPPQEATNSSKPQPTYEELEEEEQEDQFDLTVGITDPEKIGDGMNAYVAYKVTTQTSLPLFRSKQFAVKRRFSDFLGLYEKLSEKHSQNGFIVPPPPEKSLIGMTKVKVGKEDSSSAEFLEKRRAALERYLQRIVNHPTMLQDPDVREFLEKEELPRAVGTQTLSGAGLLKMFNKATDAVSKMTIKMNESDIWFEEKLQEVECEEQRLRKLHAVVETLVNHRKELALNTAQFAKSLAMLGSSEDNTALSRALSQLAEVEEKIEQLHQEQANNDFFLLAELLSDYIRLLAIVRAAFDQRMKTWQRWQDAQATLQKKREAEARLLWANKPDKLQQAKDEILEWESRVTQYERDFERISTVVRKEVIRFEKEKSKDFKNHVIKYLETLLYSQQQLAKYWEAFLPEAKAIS
T1 sequence (Q9Y5X3 whole entry, chain 2 of 2): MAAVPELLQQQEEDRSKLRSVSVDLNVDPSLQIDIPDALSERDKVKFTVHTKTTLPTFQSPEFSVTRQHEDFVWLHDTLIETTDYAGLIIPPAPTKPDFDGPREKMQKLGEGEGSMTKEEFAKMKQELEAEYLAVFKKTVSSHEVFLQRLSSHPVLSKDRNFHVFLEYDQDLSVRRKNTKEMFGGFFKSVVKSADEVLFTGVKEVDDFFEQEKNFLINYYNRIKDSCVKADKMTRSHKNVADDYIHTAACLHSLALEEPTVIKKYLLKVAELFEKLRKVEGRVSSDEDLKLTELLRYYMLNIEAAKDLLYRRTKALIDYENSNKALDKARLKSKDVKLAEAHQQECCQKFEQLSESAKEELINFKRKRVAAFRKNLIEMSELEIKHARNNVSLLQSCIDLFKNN
T2 sequence (Q13596 whole entry, chain 1 of 2): as the sequence (Q13596 whole entry, chain 1 of 2) above
T2 sequence (Q9Y5X3 whole entry, chain 2 of 2): as the sequence (Q9Y5X3 whole entry, chain 2 of 2) above

Binder SNVSYKYSKVNKEEETDENETEWLMEEIQ has a Kd [1] of 4.64 µM, a Kd [2] of 9.96 µM and a Kd [3] of 5.06 µM. It also gave a Kd [4] of 10.4 µM.
